# Reference: patent US10047131B2, “Peptides and combination of peptides for use in immunotherapy against ovarian cancer and other cancers” (immatics biotechnologies GmbH, priority 2015, dated 2018)
# Target: HLA-A*02:01 (Homo sapiens, UniProt P04439, D140Y/D185E/D98H/E176V/E277Q/G131W/G231S/I119V/I121R/I166T/I218V/L300P/L318F/N151K/N90K/P208A/P217A/Q86G/Q94H/R138H/R169H/T345S)
# Experiment: MHC binding assay (UV-ligand exchange, ELISA of exchange yield)
# Conditions: binding to HLA-A*02:01, UV-ligand exchange
# In short: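 ELISA of β2m retained on streptavidin-captured, 100-fold diluted complexes (HRP anti-β2m, TMB, 450 nm) gives the yield. Complexes come from UV-triggered exchange of a photocleavable placeholder peptide for the candidate, which must bind to stop complex dissociation.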
row,Substance,"Peptide exchange (MHC class I binding score, peptide exchange yield)"
1,89 (YILPTETIYV; listed as Homo sapiens) [compound 89],“++++” (≥75% = ++++)
2,162 (YQQAQVPSV; listed as Homo sapiens) [compound 162],“+++” (≥50 = +++)
3,393 (GLLDTQTSQVLTA; listed as Homo sapiens) [compound 393],“++” (≥20% = ++)
4,64 (YAAPGGLIGV; listed as Homo sapiens) [compound 64],“++” (≥20% = ++)
5,480 (ALLEDSCHYL; listed as Homo sapiens) [compound 480],“+++” (≥50 = +++)
6,22 (IMEENPGIFAV; listed as Homo sapiens) [compound 22],“+++” (≥50 = +++)
7,332 (YLISELEAA; listed as Homo sapiens) [compound 332],“+++” (≥50 = +++)
8,400 (SLLTEQDLWTV; listed as Homo sapiens) [compound 400],“++” (≥20% = ++)
9,309 (GLFDGVPTTA; listed as Homo sapiens) [compound 309],“+++” (≥50 = +++)
10,200 (LLFGSVQEV; listed as Homo sapiens) [compound 200],“+++” (≥50 = +++)
11,550 (FLYDEIEAEVNL; listed as Homo sapiens) [compound 550],“+++” (≥50 = +++)
12,280 (VLPDPEVLEAV; listed as Homo sapiens) [compound 280],“+++” (≥50 = +++)
13,305 (SIANFSEFYV; listed as Homo sapiens) [compound 305],“++++” (≥75% = ++++)
14,459 (ALITEVVRL; listed as Homo sapiens) [compound 459],“++” (≥20% = ++)
15,452 (ILLEHGADPNL; listed as Homo sapiens) [compound 452],“+++” (≥50 = +++)
16,181 (LLWAGTAFQV; listed as Homo sapiens) [compound 181],“+++” (≥50 = +++)
17,157 (SLNDEVPEV; listed as Homo sapiens) [compound 157],“++” (≥20% = ++)
18,442 (GLLGGGGVLGV; listed as Homo sapiens) [compound 442],“+++” (≥50 = +++)
19,462 (KLAKQPETV; listed as Homo sapiens) [compound 462],“+++” (≥50 = +++)
20,527 (FLLEPGNLEV; listed as Homo sapiens) [compound 527],“++++” (≥75% = ++++)
21,71 (GILARIASV; listed as Homo sapiens) [compound 71],“+++” (≥50 = +++)
22,249 (LLDGFLVNV; listed as Homo sapiens) [compound 249],“+++” (≥50 = +++)
23,318 (GLINTGVLSV; listed as Homo sapiens) [compound 318],“++” (≥20% = ++)
24,102 (YLFESEGLVL; listed as Homo sapiens) [compound 102],“+++” (≥50 = +++)
25,336 (ILLTAIVQV; listed as Homo sapiens) [compound 336],“+++” (≥50 = +++)

row,Substance,"Peptide exchange (MHC class I binding score, peptide exchange yield)"
1,183 (FGLDLVTEL; listed as Homo sapiens) [compound 183],“+++” (≥50 = +++)
2,549 (AMLENASDIKL; listed as Homo sapiens) [compound 549],“+++” (≥50 = +++)
3,7 (SLVGLLLYL; listed as Homo sapiens) [compound 7],“++++” (≥75% = ++++)
4,190 (FLSSLTETI; listed as Homo sapiens) [compound 190],“+++” (≥50 = +++)
5,345 (VIWKALIHL; listed as Homo sapiens) [compound 345],“+++” (≥50 = +++)
6,574 (YLLQEPPRTV; listed as Homo sapiens) [compound 574],“++” (≥20% = ++)
7,74 (ALLDPEVLSIFV; listed as Homo sapiens) [compound 74],“+++” (≥50 = +++)
8,24 (SLSDGLEEV; listed as Homo sapiens) [compound 24],“++” (≥20% = ++)
9,326 (FLPEALDFV; listed as Homo sapiens) [compound 326],“+++” (≥50 = +++)
10,60 (SLTIDGIYYV; listed as Homo sapiens) [compound 60],“++++” (≥75% = ++++)
11,9 (GAAKDLPGV; listed as Homo sapiens) [compound 9],“++” (≥20% = ++)
12,377 (FLLDSSASV; listed as Homo sapiens) [compound 377],“++” (≥20% = ++)
13,231 (FLSPQQPPLLL; listed as Homo sapiens) [compound 231],“++” (≥20% = ++)
14,120 (ALLGIPLTLV; listed as Homo sapiens) [compound 120],“+++” (≥50 = +++)
15,256 (FLPPEHTIVYI; listed as Homo sapiens) [compound 256],“+++” (≥50 = +++)
16,373 (SLLEDKGLAEV; listed as Homo sapiens) [compound 373],“++” (≥20% = ++)
17,21 (VLDELDMEL; listed as Homo sapiens) [compound 21],“++” (≥20% = ++)
18,600 (ALAAPDIVPAL; listed as Homo sapiens) [compound 600],“+++” (≥50 = +++)
19,317 (SLAALVVHV; listed as Homo sapiens) [compound 317],“+++” (≥50 = +++)
20,188 (GLFPVTPEAV; listed as Homo sapiens) [compound 188],“+++” (≥50 = +++)
21,602 (YLLEQIKLIEV; listed as Homo sapiens) [compound 602],“++++” (≥75% = ++++)
22,155 (RVANLHFPSV; listed as Homo sapiens) [compound 155],“+++” (≥50 = +++)
23,144 (YIMEPSIFNTL; listed as Homo sapiens) [compound 144],“+++” (≥50 = +++)
24,513 (SLWPSPEQL; listed as Homo sapiens) [compound 513],“++” (≥20% = ++)
25,283 (ALYIGDGYVIHLA; listed as Homo sapiens) [compound 283],“+++” (≥50 = +++)
